Measurements taken from patent US20250236683A1 (PHARMA FOODS INTERNATIONAL, published 2025).

Biological target: T1, human PAD2 protein (human, UniProt Q9Y2J8 1-665)
T1 construct: also called Peptidylarginine deiminase 2; Peptidyl arginine deiminase type-2
Experiment: SPR (Biacore 8K), antibody captured on Protein A chip, human PAD2 as analyte, single-cycle, 1:1 model
Experimental: To evaluate the binding affinity of each anti-PAD2 antibody for human PAD2 protein, the dissociation constant (KD) was measured using a surface plasmon resonance system Biacore 8K (Cytiva). Series S Sensor Chip Protein A (Cytiva) was used as the sensor chip. HBS-EP+ buffer was used as the running buffer. The test antibody was prepared at 0.8 μg/mL by using the running buffer to make a ligand solution. The ligand solution was added to the flow cell at a flow rate of 10 μL/min for 60 seconds, and the flow cell without the ligand solution was used as a reference cell. The running buffer was used to prepare human PAD2 protein from several hundred pM to several tens of nM to make each analyte solution. The running buffer was also used as a blank solution. The blank solution or analyte solution was added at a flow rate of 30 μL/min for 120 seconds by using the single-cycle method, and the dissociation time was set to 1200 seconds. The sensorgram of the reference cell was subtracted from the sensorgram of the flow cell with the ligand when the blank solution or analyte solution was added. In addition, the sensorgram when the blank solution was added was subtracted from the sensorgram when the analyte solution was added, and then used for analysis. Biacore™ Insight Evaluation Software (Cytiva) was used to calculate binding parameters while using the 1:1 binding model.

T1 sequence (Q9Y2J8 whole entry): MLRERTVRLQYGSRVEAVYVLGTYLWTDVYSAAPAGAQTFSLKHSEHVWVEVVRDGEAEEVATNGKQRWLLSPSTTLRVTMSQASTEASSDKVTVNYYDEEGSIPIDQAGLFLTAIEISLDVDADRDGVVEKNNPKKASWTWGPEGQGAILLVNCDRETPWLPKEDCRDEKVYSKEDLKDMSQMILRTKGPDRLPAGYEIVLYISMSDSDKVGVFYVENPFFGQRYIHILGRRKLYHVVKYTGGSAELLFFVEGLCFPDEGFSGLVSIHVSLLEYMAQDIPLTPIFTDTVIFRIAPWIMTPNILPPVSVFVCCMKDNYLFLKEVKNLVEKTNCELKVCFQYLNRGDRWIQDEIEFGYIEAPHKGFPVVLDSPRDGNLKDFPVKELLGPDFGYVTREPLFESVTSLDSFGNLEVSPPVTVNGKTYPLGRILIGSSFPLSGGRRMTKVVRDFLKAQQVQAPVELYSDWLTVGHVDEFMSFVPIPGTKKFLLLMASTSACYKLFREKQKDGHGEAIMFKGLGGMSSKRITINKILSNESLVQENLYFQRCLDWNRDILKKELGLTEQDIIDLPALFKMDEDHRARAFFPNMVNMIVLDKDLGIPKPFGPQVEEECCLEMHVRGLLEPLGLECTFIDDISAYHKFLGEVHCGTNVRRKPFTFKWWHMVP

| binding result | Binder |
| --- | --- |
| binds | PK1-16 (antibody, human IgG1, lambda, V domains shown, Chicken/human chimeric IgG1 expressed in 293 cells; also called anti-PAD2 antibody) VH: AVTLDESGGGLQTPGGGLSLVCKASGFTFRSYAMYWVRQAPGKGLEWLAGISSSGRYTGYAPAVKGRATISRDNGQSTVRLQLSNLRAEDAGTYYCAKDVYDSWTYANRIDAWGHGTEVIVSS VL: ALTQPSSVSANPGETVKITCSGGGRRGYYGWYQQKSPGSAPVTVIYNNDERPSNIPSRFSGFKSGSTATLTITGVQAEDEAVYYCGSGDTTTDSGIFGAGTTLTVLG |
| binds | CK1-10 (antibody, human IgG1, lambda, V domains shown, Chicken/human chimeric IgG1 expressed in 293 cells; also called anti-PAD2 antibody) VH: AVTLDESGGGLQTPGRALSLVCKASGFTFSDYGMGWMRQAPGKGLEWVGAISNRGSHTYYGAAVKGRATISRDNGQSTVRLQLNNLRAEDTGTYYCAKDAGTCISSYGFSCVSAASIDAWGHGTEVIVSS VL: ALTQPSSVSANLGGTVKITCSGGSGSYGGSYYYGWYQQKAPGSAPVTLIYDNTNRPSNIPSRFSGSKSGSTATLTITGVQADDEAVYFCGSIDSISDADIFGAGTTLTVLG |
